{"source": "a protein production outcome set (Wang et al. 2014)"}
{"experiment": "label from the status in PepcDB records"}
{"sequence": "MEVHYMTKIKEIKKVLQQEDADAAWITTPLNIFYFTGYRSEPHERLFALLIPSNEEPVLFCPKMEVEEVKQSPFKGKIIGYLDTENPFDKYSKTFSKMLIESEHLTVKRQRELTKAFNIEHYQDVDQSIKDLRNIK", "protein production": "failed"}
{"sequence": "MEVIESKWYKKDGASSASIDDVEKLLNTTLPKQYKSFLLWSNGGEGKLGDNYIYIWAIEDVIAYNHDYGIQKYLQKEYWAFGMDGDIGYILHLSDNSIYRVDLGDLDITSIKYIAPSFDDFLGKAIYLNFNKLQNVANNNLTT", "protein production": "not failed"}
{"sequence": "MEVKEVELELSSEATFLSKTSIGEITAGEKGLNPMELLLVSIGSCSGVDVYHILKKKRQEVKDIKIFLKGKRREKHPKIYEEIEIKYVAVGKVEEKALEQAVKLSTEKYCSVLAMVKPSTNLKISWEVKWEE", "protein production": "not failed"}
{"sequence": "MEVKGFIEIMRPHNCILAGIVGILGALVAYEGIPDIKTLTLIFWVVYFGCSGGNTANDYFDYEIDKINRPNRPLPRGAMSRRAALYYALLQYAIGSILAYFLNIRAFVFATIAYFLTFLYGWKLKPLPLVGNITVAALTAATPIYGAIGVGRIGLAGYLAICAFLVNVSREIMKDIEDIEGDKALGARTLPIIIGEKKAAIIAAIFGFLTVIASFLPVKVGIGLGYAPIIIVDIIIIKASIDVLRDPKAASKGQKLLKIATFVAVISFLAGALTKGV", "protein production": "failed"}
{"sequence": "MEVKKELNAQSGKKSLMTIENRKRLLLTGVSEVVNFNDEQIVLNTNLGSLIIKGRELKMNKLDVQNGDIAITGTINAVYSGNESSNKKDSIISRLFKLEHHHHHH", "protein production": "failed"}
{"sequence": "MEVKKVLVSAFLLTTCLMSGQAQRRNEIQVPDLDGYTTLKCDFHMHSVFSDGLVWPTVRVDEAYRDGLDAISLTEHIEYRPHKQDVVSDHNRSFDLCREQAEKLGILLIKGSEITRAMAPGHFNAIFLSDSNPLEQKDYKDAFREAKKQGAFMFWNHPGWDSQQPDTTKWWPEHTALYQEGCMHGIEVANGHLYMPEAIQWCLDKNLTMIGTSDIHQPIQTDYDFEKGEHRTMTFVFAKERSLQGIREALDNRRTAAYFHELLIGREDLLRPFFEKCVKIEEVSRNEQGVTLSITNVTDLVLKLKKTAHDTLLVYFRDMTLKPHTRYTVRIGFKQGIKGGDVNFEVTNFIVAPDKGLKYTISL", "protein production": "failed"}
{"sequence": "MEVNKPLPLISIIVPIYNIAEYASECIQSLINQTYKNIEIILVDDGSTDHSPAICDEFAEQDERIKVIHKRNGGLSDARNAGLDVATGEYIGFVDGDDWVDEDMYETLYHLIYEHQADISICTHYTELPNRTKVKYKSKKTKIFSSQKAIATLIEDKIIQNYIWEKLFKRELFTELRFPVGWSFEDIALCYKVFHKARKIVLLQTPKYHYRTRPGSITNSTRNPLKEFQYLQALHEQFQFAAENNIKVRKPKKLVQKTFHFINHIIILPPSSLKKKYINDAFEIAHTYDYLRNWEIGVAATLRRFFVYNYFNAYASVIITYRKYIPARTVKSTTEFFFVRRVATSLATAMRSILYILEHHHHHH", "protein production": "failed"}
{"sequence": "MEWFDKISEFMEGLPEWLQAHPRYGYLIVAGILLLWLVGIVCGWRWTYSRPGSWEGNFWLGTLGERSYRFWLGLIVAAATGCALLLFSVTG", "protein production": "failed"}
{"sequence": "MEWLFWFDARDYEFARQVLQRGTAVLYAVAFLSTLNQFPALLGERGLLPVPAFLDMARRLARPTLFRWRYSDALLKAVCWTGIGVSVLLVMGLPQTGPPWLPMLAFLTLWFLYMSIVNVGQTFYGFGWEILLLEAGFTVAFLGSNQCPPPTTILVLIVWLVFRLEFGAGMIKIRGGREWRDMTAMFYHHETQPMPGPLSRQAHLLPRPLHKVEVVGNHFAQLVVPFFLFAPQPLASIAAGIIIATQLWLVGTGNFAWLNWVAIVLAFAAVSDPVAHAVFPFIPLEWHQSTETPVWWLAVVVLVTVLLLVFSYQPLLNLFSSRQLMNASFNRWRLVNAYGAFGTVTKQRIEIVVEGTLDDAPDAPDERWLEYGFKGKPGDVRRLPRQWAPYHLRLDWLMWFLPLRTVHEDWFYIFLDRLLEADRRTLGLLRVDPFDGERPRWVRARSYLYRFASRAEFRETGERWVRVLLYDAIPPVSLSPRRRRLP", "protein production": "failed"}
{"sequence": "MEYKLTPSYLLKENMVLACGNILFADDGFSVHVIEKLQELLTEEEKENIALVDAGAGAPQQVLTLIDSEAKTKKIIVVDIIDYGLEPGEIKILTMDDLPKPEHTKVDSHDWPLSTTMYRVFRDAPHEIDFKVVGCQKKYVSEPDVVIELSEEVQNAVDVAVDIVLSELRGKPIN", "protein production": "not failed"}
{"sequence": "MEYKPIRKVVSGNYAAAYAALHARVQVVAAYPITPQTSIIEKIAEFIANGEADIQYIPVESEHSAMAACIGASATGARTFTATSAQGLALMHEMLHWAAGARLPIVMVDVNRAMAPPWSVWDDQTDSLSQRDTGWMQFYAENNQEVYDGVLMAYKVAETVNVPAMVVESAFILSHTYDVVEMIPQELVDEFLPPRKPLYSLANFDEPIAVGALATPNDYYEFRYKLAKAHEEAKKVIKEVGKEFGERFGRDY", "protein production": "failed"}
{"sequence": "MEYSSIANGLFLISDINSDAAATISNVFDHTSMNTADLENMPTEKPVEYTKSPGHYYIVLPGQPNKYTAKIIINQLNASGETSDIATTTATSAYTTGLFTISAKYLVDDAFVINAGTGQEMTLTRIMDMDGSDYETFPVDVNQGPQTFTIVPQDQLLHATVNYKFADGTEAAPSAKLSGYAGLTTVSAKSPTISGYTPDQKEVAVAFAPTEKTYTVTYKANPTTPTATESSASSSTADEATTFTPFKIYGKRALYTYKNATFKKNQRVSHYAQKSKAYAPIFEVVGTAKSTSGHLRYKLADGTYVTANADYVGALYWQGMYQKLYVTNPKGTNAYDGTRFAQATKQKHYRQGTALTVVKQTQVGQTTRYELTNGTYVTGNKQWVSPTKPRLVKQVKVKRTIRLYRDVNGSTFIKRIKPGKTLTVTGWDYSHGRNPRLSGTLRYRVAGGYITANRQFVVAN", "protein production": "failed"}
{"sequence": "MEYVAFSVAVIILLGLLFNRVFTRARLPGILGMLILGILIGPHGLNLISKSIMDISPDLRVIALIIILLRAGFGINLESLRKVGMTAVKMSFIPDVFEGLAVMVASHYILGLPIIEAGILGFVIAAVSPAVIVPQMLSFIERRMGTAKGIPTIILTGASVDDVVSITLFSVFLGIYQGQQVNLLVEAIGVPLSILTGITGGLALGLALVYLFRRFEIRNTEKTLIILGAAILLKNMGDLISTYLPIAALVGVMVVGLVILERMPETGLKLSEKFNKVWIFAEILLFVLVGAQVDVRLIFHVGLLGLAVITAGLMVRSIGVLLSLKGTDLNLKEKVFCISAYIPKATVQAAIGAIPLAAGVAAGETILAMAVLAILFTAPLGSLAVKWTGERFLEVERGN", "protein production": "failed"}
{"sequence": "MFADRLFNAMERNEPAPGMVLVAAPSMESEDFARSVILIIEHSEYATFGVNLASRSDVAVFNVIPEWVPCVTKPQALYIGGPLNQQSVVGVGVTAQGVDAARVDNLTRLANRLVMVNLGADPEEIKPLVSGMRLFAGHAEWAPGQLAQEIENGDWFVAPALPSDVTAPGSVDVWGDVMRRQPMPLPLYSTFPVNVGEN", "protein production": "not failed"}
{"sequence": "MFADTCGFMNRSPEHIFGSPEIDYSDVSTGYLEDALIESGERSKRRRLLFEDPSKSFNDDDSQNDWGLHESYSCLNSQFVTPHVNTGERISGVSYCQETISNVYESPDTSVSYDKIYVREKSPTEPSSSNCGNKNKRLITKLVYPFGLVKPGGRENDVTLNDINERILMAPSRPIRHPVGDFASRPCVSGRGPGLSGKAVVALTKIQTQGRGTITIIRTKG", "protein production": "failed"}
{"sequence": "MFALIILISAIIFGIISYFTGKHAKEVSAVLSGILLLEIIAYSIMRFSSYSGGFISRYSVVISSSLGLSFSIAVSGLTDALLILSAVVILIAVLITDRNYGSAFFGLEMTVLAGLIGLLISRDFLFFYIFWEVVLIPVYFMIGRYGIGNKNSISLKFFVYTHIGSVFILLSIFTLYSQSYVYLASPTFEIGPLMSILPKLSLFYKGFVIFGFLFGFLVKMPSFPIHSWLPDSYYSAPYPGSVILAGAISMMGGYGLFGIMIESYKALDVYVLYLLIALGIISLIYFALTAMFQRNIKKMMAFASASAMGFVTISFAASILETSGIDYSVRALEAAGGMFQIVAHGLIMSLVFSALYYISRNTKTDSVYGLGGIYREAPKLASLTLVGLLASLGLPGFAGFIGEFSIVVGVFQTVSWYIFLIIFGMIITASYHIWTAQRSLYGPYNENLGFIRDINSGEFMILIFLVLVIFVLGIYPNLIFANLVNYTNTSLSISVEPALRTNVVAFLEAHVFEVMQ", "protein production": "failed"}
{"sequence": "MFANWLLVSVSIGYIGLLFLIAHLGGKYRNKLEAKQQTIIYALSLGVYCTSWGFLGTTAQAANHSFTFLSVYLAPIVLFVFAWPFIQRIIKTSLKLKITSIADLLSARFGKSQTLAIIITLVALIGTMPYIALQLKAIVNSYQILQETQDLPIWQIGLVVSIILAVFTIIFGIRTIDITERHPGVMIAIAFESLVKLIAFLLVGLFVSFIIYDSPMDIWELSKDQFDIEKQFEFSNLFALFGMLIIVMSAFLCLPRQFQVMFVEIKDKKTSGMARWVLPVYLLIFGFFAAVLGLAGNLNYGSSLAADAYVLFLPALDGQVWLSLFAFLGAVSAASSMVIVSTIALSTMLSNEIVFPVMFNFSRQKQQDFNHFQLQLLFIRKTLVLLVIFLSYGLLLVSPPDALSSLGEVAFGAIAQIGPALFVAFYWRRATLAGVLAGIICGFTIWTVFNLIPQLGIYAHPLENTDLPKTTVITLIGLLINVIALWLVSLGTRQSIREQMQSEFFYTDRKKIKWSLPSQPKVDIVELELLVARFIGEEKATKCFEKFHSMNQTKDNKKFNEAILFHAENTLARVLGSASAKLVTSLAISSRGMAFDQVAKLVEDNSTQQLEFSRTVLQSAIENVSEGISVIDSELKLVAWNKQYLDIFSYPEAFIYIGCPISQLIHFNLSQQGYFAKDIDLRVKKRIQYIMEGSRHNTEYKLKNGKNIRIEGSPIPGGGFVMIFSDITQYRQTEEVLKEENTDLESRVQFRTAELEQANKELALANHELIQAQTKAEQAHVKKSQYLKACSHDLLQPLSAARLFSSAISLSPRVSNEEREQIKKIDNSLEIANSLLLDLNEIARIESGNITPTIEPIEIKELFTMLANEFNALTDEYHVEFHCKMSKTYVASDITLLARIVQNFLSNAFRYAHRCDKKNQSKVLLGCRRQGNEISIQVFDNGPGIPIDKQQQVFDQFTQLNNSNVMGPKGLGLGLNIAQSLANILEHKIDLKSKPGHGCLFSVNAPMTLAPAAKEQTLPPASMSLHGVGVLCIDNEPAILDGMSKLLSAWQCQVFTAVDAQQARELYAKHEDEIDILLVDYQLDGCQDDNTIMATDMLISERNDSSCSIDPVNGIGLIKQLRAMSPYALPAILITATTGENLMALTKQHNIGYLRKIIRPLALRALMSSLLTEELAKNYSQNNT", "protein production": "failed"}
{"sequence": "MFAVPYHQHLWRIKLALIAQNHLQLIIEVGIILYAAMVFILNLAPMSLSMVLFICIVLGIGFNIIFGLDVVALFMSFGQSEFTHPFGPIALLVTVSSLAALAIMEESGVDVRGLRGFVYLLMAGITLFGGLMHRSFLLLWLLGLFMGLFIISKSMRQRSLITVKRVAGFALIAVAGFGGLELISRVLGMTVLSPLLRIERLETFSLPSMKLVIKNTTLLGHNPMSSYWGELSSGFADGYISLPLQLILFFGLPFPVFYGILVNKKDVIDYMVPGVFGWAYDFGYITMFFLLIWCVGIIIMGLRMLSIYRERRENGSRSYLGREVLLTGALAAFMSQAIIGLFVINRTINGTALLTFIFLSSLIFANSVGLKE", "protein production": "failed"}
{"sequence": "MFDFSIVTNWIHEMLLSVMPEGWAIFIECIAVGVCIVALYAILAIVLIYMERKVCGFFQCRLGPNRVGKWGSIQVICDVLKMLTKEIFTPKDADRFLYNLAPFMVIIASFLTFACIPFNKGAEILNFNVGVFFLLAASSIGVVGILLAGWGSNNKFSLIGAMRSGAQIISYELSVGMSIMTMVVLMGTMQFSEIVEGQADGWFIFKGHIPAVIAFIIYLIAGNAECNRGPFDLPEAESELTAGYHTEYSGMHFGFFYLAEYLNLFIVASVAATIFLGGWMPLHIIGLDGFNAVMDYIPGFIWFFAKAFFVVFLLMWIKWTFPRLRIDQILNLEWKYLVPISMVNLLLMACCVAFGFHF", "protein production": "failed"}
